# According to the RNAGym collection of RNA variant scans (doi:10.1101/gr.219683.116):
# B1: mRNA-splicing (parent)
# chain: AGUUGCUGCUGGGAGCUCCAGCACAGUGAAAUGGACAGAAGGGCAGAGCAA
# Variants of: B1
# Assay: exon inclusion enrichment index; higher = more inclusion; WT1 exon 5 minigene, HEK293
row,Variant,exon inclusion enrichment index
1,AGUUGCUGCUGGGAGCUCCAGCACAGUGAAAUGGACAGAAGGGCAAGGCAA,0.0433
2,AGUUGCUGCUGGGAGCUCCAGCACAGUGAAAUGGACAGAAGGGCAAUGCAA,0.185
3,AGUUGCUGCUGGGAGCUCCAGCACAGUGAAAUGGACAGAAGGGCAACGCAA,0.547
4,AGUUGCUGCUGGGAGCUCCAGCACAGUGAAAUGGACAGAAGGGCCCAGCAA,0.068
5,AGUUGCUGCUGGGAGCUCCAGCACAGUGAAAUGGACAGAAGGGCCUAGCAA,0.0235
6,AGUUGCUGCUGGGAGCUCCAGCACAGUGAAAUGGACAGAAGGGCCAAGCAA,0.0421
7,AGUUGCUGCUGGGAGCUCCAGCACAGUGAAAUGGACAGAAGCCCAGAGCAA,0.757
8,AGUUGCUGCUGGGAGCUCCAGCACAGUGAAAUGGACAGAAGCUCAGAGCAA,0.634
9,AGUUGCUGCUGGGAGCUCCAGCACAGUGAAAUGGACAGAAGCACAGAGCAA,0.623
10,AGUUGCUGCUGGGAGCUCCAGCACAGUGAAAUGGACAGAAGGAAAGAGCAA,0.778
11,AGUUGCUGCUGGGAGCUCCAGCACAGUGAAAUGGACAGAAGGAGAGAGCAA,0.723
12,AGUUGCUGCUGGGAGCUCCAGCACAGUGAAAUGGACAGAAGGAUAGAGCAA,0.129
13,AGUUGCUGCUGGGAGCUCCAGCACAGUGAAAUGGACAGCCGGGCAGAGCAA,0.407
14,AGUUGCUGCUGGGAGCUCCAGCACAGUGAAAUGGACAGCUGGGCAGAGCAA,0.0469
15,AGUUGCUGCUGGGAGCUCCAGCACAGUGAAAUGGACAGCGGGGCAGAGCAA,0.223
16,AGUUGCUGCUGGGAGCUCCAGCACAGUGAAAUGGACAGAAGGUCAGAGCAA,0.11
17,AGUUGCUGCUGGGAGCUCCAGCACAGUGAAAUGGACAGAAGGACAGAGCAA,0.774
18,AGUUGCUGCUGGGAGCUCCAGCACAGUGAAAUGGACAGAAGGCCAGAGCAA,0.209
19,AGUUGCUGCUGGGAGCUCCAGCACAGUGAAAUGGACAGAAGGGUGGAGCAA,0.0801
20,AGUUGCUGCUGGGAGCUCCAGCACAGUGAAAUGGACAGAAGGGUUGAGCAA,0.0412
21,AGUUGCUGCUGGGAGCUCCAGCACAGUGAAAUGGACAGAAGGGUCGAGCAA,0.266
22,AGUUGCUGCUGGGAGCUCCAGCACAGUGAAAUGGACAGAAGAUCAGAGCAA,1.63
23,AGUUGCUGCUGGGAGCUCCAGCACAGUGAAAUGGACAGAAGAACAGAGCAA,1.43
24,AGUUGCUGCUGGGAGCUCCAGCACAGUGAAAUGGACAGAAGACCAGAGCAA,2.4
25,AGUUGCUGCUGGGAGCUCCAGCACAGUGAAAUGGACAGAAGGCAAGAGCAA,0.932
26,AGUUGCUGCUGGGAGCUCCAGCACAGUGAAAUGGACAGAAGGCGAGAGCAA,1.62

row,Variant,exon inclusion enrichment index
1,AGUUGCUGCUGGGAGCUCCAGCACAGUGAAAUGGACAGAAGGCUAGAGCAA,0.086
2,AGUUGCUGCUGGGAGCUCCAGCACAGUGAAAUGGACAGAAUUGCAGAGCAA,0.192
3,AGUUGCUGCUGGGAGCUCCAGCACAGUGAAAUGGACAGAAUAGCAGAGCAA,0.0358
4,AGUUGCUGCUGGGAGCUCCAGCACAGUGAAAUGGACAGAAUCGCAGAGCAA,0.49
5,AGUUGCUGCUGGGAGCUCCAGCACAGUGAAAUGGACAGUUGGGCAGAGCAA,0.0388
6,AGUUGCUGCUGGGAGCUCCAGCACAGUGAAAUGGACAGUCGGGCAGAGCAA,0.276
7,AGUUGCUGCUGGGAGCUCCAGCACAGUGAAAUGGACAGUGGGGCAGAGCAA,0.0141
8,AGUUGCUGCUGGGAGCUCCAGCACAGUGAAAUGGACAGGGGGGCAGAGCAA,0.0122
9,AGUUGCUGCUGGGAGCUCCAGCACAGUGAAAUGGACAGGUGGGCAGAGCAA,0.0108
10,AGUUGCUGCUGGGAGCUCCAGCACAGUGAAAUGGACAGGCGGGCAGAGCAA,0.199
11,AGUUGCUGCUGGGAGCUCCAGCACAGUGAAAUGGACAGAAGGGCUCAGCAA,0.0947
12,AGUUGCUGCUGGGAGCUCCAGCACAGUGAAAUGGACAGAAGGGCUAAGCAA,0.0722
13,AGUUGCUGCUGGGAGCUCCAGCACAGUGAAAUGGACAGAAGGGCUUAGCAA,0.0239
14,AGUUGCUGCUGGGAGCUCCAGCACAGUGAAAUGGACAGAAGGGCAGGACAA,0.0368
15,AGUUGCUGCUGGGAGCUCCAGCACAGUGAAAUGGACAGAAGGGCACUGCAA,0.224
16,AGUUGCUGCUGGGAGCUCCAGCACAGUGAAAUGGACAGAAGGGCACGGCAA,0.339
17,AGUUGCUGCUGGGAGCUCCAGCACAGUGAAAUGGACAGAAGGGCACCGCAA,0.227
18,AGUUGCUGCUGGGAGCUCCAGCACAGUGAAAUGGACAGAAUGGCAGAGCAA,0.16
19,AGUUGCUGCUGGGAGCUCCAGCACAGUGAAAUGGACAGAACGGCAGAGCAA,0.866
20,AGUUGCUGCUGGGAGCUCCAGCACAGUGAAAUGGACAGAAAGGCAGAGCAA,0.0829
21,AGUUGCUGCUGGGAGCUCCAGCACAGUGAAAUGGACAGAUUGGCAGAGCAA,0.0512
22,AGUUGCUGCUGGGAGCUCCAGCACAGUGAAAUGGACAGAUAGGCAGAGCAA,0.00196
23,AGUUGCUGCUGGGAGCUCCAGCACAGUGAAAUGGACAGAUCGGCAGAGCAA,0.701
24,AGUUGCUGCUGGGAGCUCCAGCACAGUGAAAUGGACAGAAGGGCAGCUCAA,0.173
25,AGUUGCUGCUGGGAGCUCCAGCACAGUGAAAUGGACAGAAGGGCAGCCCAA,0.171
